Measurements reported in patent publication US20210347873A1 (SHANGHAI PHARMAEXPLORER, published 2021).

T1: human APRIL protein (human, UniProt O75888 105-250, limits assumed)
T1 construct: Bought protein; also called recombinant APRIL protein
T1 sequence (looked up): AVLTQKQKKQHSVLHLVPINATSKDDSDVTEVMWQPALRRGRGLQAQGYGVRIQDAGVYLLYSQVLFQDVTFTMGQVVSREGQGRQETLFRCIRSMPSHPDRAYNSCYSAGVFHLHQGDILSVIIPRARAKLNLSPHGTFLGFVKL

T2: cynomolgus BLyS (full length, arginine to histidine at position 132) on CHO-K1 cells (cynomolgus, UniProt Q9Y275 1-285 (human entry))
T2 construct: also called cyno BLyS; CHO-K1 cynoBLyS
T2 chain: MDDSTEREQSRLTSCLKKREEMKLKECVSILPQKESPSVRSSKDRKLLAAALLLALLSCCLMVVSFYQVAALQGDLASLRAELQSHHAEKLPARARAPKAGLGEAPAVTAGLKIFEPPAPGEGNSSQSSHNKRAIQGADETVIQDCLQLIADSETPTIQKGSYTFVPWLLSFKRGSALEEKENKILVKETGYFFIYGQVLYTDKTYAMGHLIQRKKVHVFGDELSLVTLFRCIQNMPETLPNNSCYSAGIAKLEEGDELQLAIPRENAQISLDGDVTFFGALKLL

B1: 111D10D6G3 (antibody, V domains shown)
VH: QVQLQQPGAELVKPGASVKMSCKASGYTFTRHWITWVKQRPGQGLEWIGDIFPGSGSINYNEKFKSEATLTVEKSSSTAYMQLSSLTSEDSAVYYCARGDVDVWGTGTTVTVSS
VL: DIQMTQSPSSLSASLGERVSLTCRASQEIRGYLSWLQQKPNGTIKRLIYAASTLDSGVPKRFSATRSGSDFSLTISSLESEDFADYYCLQYASYPFTFGSGTKLEIK
notes: Mouse hybridoma monoclonal antibody purified on Protein G
B2: 97A3C2H4 (antibody, V domains shown)
VH: EVKLVESGGGLVQPGGSLKLSCAASGFTFSTYTMSWVRQTPEKRLEWVAYISYGGGSTSYPDTVKGRFTISRDNAKNTLYLQMSSLKSEDTAIYYCTRHVTVVENSMDYWGQGTSVTVSS
VL: DILLTQSPDILSVSPGERVSFSCRASQSIGTSIHWYQQRTNGSPRLLIKYVSESFSGTPSRFSGSGSGTAFTLTINSVESEDIADYYCQQTHSWPWTFGGGTKLEIK
notes: as for B1
B3: 8E7D9C7F5 (antibody, V domains shown)
VH: QVQLQQSGVELARPGASVKLSCKASGYTFTSYGISWVKQRTGQALEWIGEIYPRSGNTYYNEKFKGKATLTADKSSSTAYMELRSLTSEDSAVYFCARSGPITTLVATDYGMDYWGQGTSVTVSS
VL: DIVLTQSPASLAVSLGQRATISCRASKSVSTSSYSYMHWYQQKPGQPPKLLIKFASNLESGVPARFSGSGSGTDFTLNIHPVEEEDAATYYCQHSREFPYTFGGGTKLEIK
notes: as for B1
B4: 111D10D6G3 (antibody, V domains shown)
VH: B1 VH
VL: B1 VL
notes: Mouse hybridoma antibody purified on Protein G
B5: L1D12 (antibody, human IgG1, V domains shown)
VH: QVQLVQSGGGLVQPGGSLRLSCAASGFTVSSNYMSWVRQAPGKGLEWVSVIYSGGSTYYADSVKGRFTISRDNSKNTLYLQMNSLRAEDTAVYYCARGFHDILTGYGMDVWGQGTTVTVSS
VL: SSELTQDPAVSVALGQTVRITCQGDSLRNYYAGWYQQKPGQAPVLVIYGKNNRPSGIPDRFSGSSSGNTASLTITGTQAEDEADYYCSSRDNSGTHLVEFGGGTKLTVL
notes: also called LID12
B6: 97A3C2H4 (antibody, V domains shown)
VH: B2 VH
VL: B2 VL
notes: as for B4
B7: L9G7 (antibody, human IgG1, V domains shown)
VH: QIQLVQSGAEVKKPGASVKVSCKASGYTFTSYGISWVRQAPGQGLEWMGWISAYNGNTNYAQKLQGRVTMTTDTSTSTAYMELRSLRSDDTAVYYCARTYYDILTGYYYYGMDVWGQGTTVTVSS
VL: EIVLTQSPGTLSLSPGERATLSCRTSQSVDTYLAWYQQKPGQAPRLLIYDASNRATGIPARFSGSGSGTDFTLTISSLEPEDFAVYYCQQRSNWPLTFGGGTKVEIK

What follows are molecules tested against mouse BLyS protein (mouse, UniProt Q9WU72 69-309) (assay: cell-based or functional assay).
mouse BLyS protein, sequence (Q9WU72 69-309): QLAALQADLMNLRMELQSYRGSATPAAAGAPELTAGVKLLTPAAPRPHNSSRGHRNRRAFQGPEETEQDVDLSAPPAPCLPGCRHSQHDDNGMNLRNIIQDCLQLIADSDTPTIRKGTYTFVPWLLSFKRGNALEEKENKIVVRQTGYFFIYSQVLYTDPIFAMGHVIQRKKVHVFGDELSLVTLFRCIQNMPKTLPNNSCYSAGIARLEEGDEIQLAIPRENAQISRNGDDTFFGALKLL

| Molecule | mouse B lymphocyte proliferation (OD450 nm), antibody 0 nM [OD450 nm] | mouse B lymphocyte proliferation (OD450 nm), antibody 0.000256 nM | mouse B lymphocyte proliferation (OD450 nm), antibody 0.00128 nM [OD450 nm] | mouse B lymphocyte proliferation (OD450 nm), antibody 0.0064 nM [OD450 nm] | mouse B lymphocyte proliferation (OD450 nm), antibody 0.032 nM [OD450 nm] | mouse B lymphocyte proliferation (OD450 nm), antibody 0.16 nM [OD450 nm] | mouse B lymphocyte proliferation (OD450 nm), antibody 0.8 nM [OD450 nm] | mouse B lymphocyte proliferation (OD450 nm), antibody 4 nM [OD450 nm] | mouse B lymphocyte proliferation (OD450 nm), antibody 20 nM [OD450 nm] | mouse B lymphocyte proliferation (OD450 nm), antibody 100 nM [OD450 nm] |
| --- | --- | --- | --- | --- | --- | --- | --- | --- | --- | --- |
| mIgG Control (antibody) | 2190 | 2110 | 2270 | 2420 | 2320 | 2330 | 2520 | 2440 | 2360 | 2350 |
| hIgG Control (antibody) | 2220 | 2220 | 2240 | 2460 | 2500 | 2440 | 2510 | 2580 | 2600 | 2670 |
| B1 | 2120 | 2300 OD450 nm | 2150 | 2130 | 2320 | 2290 | 2520 | 2710 | 2540 | 2360 |
| B2 | 2160 | 2210 OD450 nm | 2200 | 2250 | 2370 | 2300 | 2410 | 2430 | 2400 | 2320 |
| B3 | 2100 | 2220 OD450 nm | 2240 | 2250 | 2320 | 2350 | 2300 | 2440 | 2350 | 2360 |

The molecules below were run against T1, human APRIL protein (assay: ELISA, coated APRIL; antibody 13.3 nM).
Outline: (§1)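 Human APRIL was coated (1.0 μg/mL, 4 °C overnight), and after blocking, BLyS antibodies bound for 1 h at 37 °C. Detection used HRP secondary antibody and TMB; A450 OD values are reported, with human IgG as control.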

| Molecule | OD450 nm |
| --- | --- |
| mIgG Control (antibody) | 0.0624 |
| hIgG Control (antibody) | 0.226 |
| B4 | 0.0573 |
| B5 | 0.124 |
| B6 | 0.0848 |
| B7 | 0.107 |

The molecules below were run against T1, human APRIL protein (assay: ELISA, coated APRIL; antibody 66.7 nM).
Outline: as §1

| Molecule | OD450 nm |
| --- | --- |
| mIgG Control (antibody) | 0.102 |
| hIgG Control (antibody) | 0.477 |
| B4 | 0.0681 |
| B5 | 0.133 |
| B6 | 0.173 |
| B7 | 0.276 |

These molecules were tested against T1, human APRIL protein (assay: ELISA, coated APRIL; antibody 0.107 nM).
Outline: as §1

| Molecule | OD450 nm |
| --- | --- |
| mIgG Control (antibody) | 0.0533 |
| hIgG Control (antibody) | 0.0722 |
| B4 | 0.0536 |
| B5 | 0.0678 |
| B6 | 0.0561 |
| B7 | 0.0861 |

The molecules below were run against T1, human APRIL protein (assay: ELISA, coated APRIL; antibody 0.534 nM).
Outline: as §1

| Molecule | OD450 nm |
| --- | --- |
| mIgG Control (antibody) | 0.0536 |
| hIgG Control (antibody) | 0.0793 |
| B4 | 0.0525 |
| B5 | 0.0757 |
| B6 | 0.059 |
| B7 | 0.0741 |

These molecules were tested against T1, human APRIL protein (assay: ELISA, coated APRIL; antibody 0 nM (blank)).
Outline: as §1

| Molecule | OD450 nm |
| --- | --- |
| mIgG Control (antibody) | 0.0716 |
| hIgG Control (antibody) | 0.0711 |
| B4 | 0.0547 |
| B5 | 0.0625 |
| B6 | 0.0566 |
| B7 | 0.0638 |

Each molecule was assayed against T3, human BLyS (full length, arginine to histidine at position 132) on CHO-K1 cells (human, UniProt Q9Y275 1-285) (assay: flow cytometry, CHO-K1 hBLyS cells, antibody 13.3 nM).
T3 construct: also called hBLyS; CHO-K1 hBLyS
T3 sequence (Q9Y275 whole entry R130H): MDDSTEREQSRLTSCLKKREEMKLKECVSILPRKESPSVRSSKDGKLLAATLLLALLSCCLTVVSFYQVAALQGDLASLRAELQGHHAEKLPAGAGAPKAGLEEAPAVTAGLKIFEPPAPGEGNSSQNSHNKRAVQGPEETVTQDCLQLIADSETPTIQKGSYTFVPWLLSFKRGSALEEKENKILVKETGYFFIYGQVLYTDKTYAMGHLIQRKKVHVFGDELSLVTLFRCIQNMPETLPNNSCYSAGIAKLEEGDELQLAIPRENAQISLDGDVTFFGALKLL

| Molecule | MFI [MFI] |
| --- | --- |
| B1 | 276 |
| B2 | 460 |
| B3 | 570 |

The molecules below were run against T3, human BLyS (full length, arginine to …) (assay: flow cytometry, CHO-K1 hBLyS cells, antibody 2.67 nM).

| Molecule | MFI [MFI] |
| --- | --- |
| B1 | 265 |
| B2 | 448 |
| B3 | 532 |

Target: T2, cynomolgus BLyS (full length, arginine …)
Assay: flow cytometry, CHO-K1 cynoBLyS cells, antibody 13.3 nM

| Molecule | MFI [MFI] |
| --- | --- |
| B1 | 524 |
| B2 | 943 |
| B3 | 1170 |

Target: T2, cynomolgus BLyS (full length, arginine …)
Assay: flow cytometry, CHO-K1 cynoBLyS cells, antibody 2.67 nM

| Molecule | MFI [MFI] |
| --- | --- |
| B1 | 510 |
| B2 | 956 |
| B3 | 1130 |

Target: T2, cynomolgus BLyS (full length, arginine …)
Assay: flow cytometry, CHO-K1 cynoBLyS cells, antibody 66.7 nM

| Molecule | MFI [MFI] |
| --- | --- |
| B1 | 539 |
| B2 | 987 |
| B3 | 1170 |

Target: T2, cynomolgus BLyS (full length, arginine …)
Assay: flow cytometry, CHO-K1 cynoBLyS cells, antibody 0.107 nM

| Molecule | MFI [MFI] |
| --- | --- |
| B1 | 222 |
| B2 | 243 |
| B3 | 477 |

Target: T2, cynomolgus BLyS (full length, arginine …)
Assay: flow cytometry, CHO-K1 cynoBLyS cells, antibody 0.534 nM

| Molecule | MFI [MFI] |
| --- | --- |
| B1 | 478 |
| B2 | 682 |
| B3 | 1050 |
